The source of these data is article PMC11565788 (bioRxiv, 2024).

B1: AAGAB psGD (residues 2-177), tagless, coexpressed and co-purified with AP1σ3-His6 (domain or fragment, human, UniProt Q6PD74 2-177, looked up)
chain: AAGVPCALVTSCSSVFSGDQLVQHILGTEDLIVEVTSNDAVRFYPWTIDNKYYSADINLCVVPNKFLVTAEIAESVQAFVVYFDSTQKSGLDSVSSWLPLAKAWLPEVMILVCDRVSEDGINRQKAQEWCIKHGFELVELSPEELPEEDDDFPESTGVKRIVQALNANVWSNVVMK
B2: AP1σ3-His6 (full-length human AP1S3 with C-terminal His6 tag) (natural protein, UniProt Q96PC3-1 1-154, looked up)
chain: MIHFILLFSRQGKLRLQKWYITLPDKERKKITREIVQIILSRGHRTSSFVDWKELKLVYKRYASLYFCCAIENQDNELLTLEIVHRYVELLDKYFGNVCELDIIFNFEKAYFILDEFIIGGEIQETSKKIAVKAIEDSDMLQEVSTVSQTMGER

The target in experiment [1] is B2. Description: SEC.
The target in experiment [2] is B1. Put plainly: crystal structure.

The term stoichiometry N denotes a count of units in the complex or per binding partner.

Regarding B1, the “stoichiometry N” value in experiment [1] stood at 1.

Take B2: the binding result in experiment [2] was “binds”.
